T1: human LRRC15 extracellular domain with C-terminal His tag (human, UniProt Q8TF66 22-538)
T1 construct: Recombinant, made in HEK293; the entry holds the extracellular domain and the His tag; SPR analyte; also called TPP-1545; hLRRC15 CT-His
T1 sequence: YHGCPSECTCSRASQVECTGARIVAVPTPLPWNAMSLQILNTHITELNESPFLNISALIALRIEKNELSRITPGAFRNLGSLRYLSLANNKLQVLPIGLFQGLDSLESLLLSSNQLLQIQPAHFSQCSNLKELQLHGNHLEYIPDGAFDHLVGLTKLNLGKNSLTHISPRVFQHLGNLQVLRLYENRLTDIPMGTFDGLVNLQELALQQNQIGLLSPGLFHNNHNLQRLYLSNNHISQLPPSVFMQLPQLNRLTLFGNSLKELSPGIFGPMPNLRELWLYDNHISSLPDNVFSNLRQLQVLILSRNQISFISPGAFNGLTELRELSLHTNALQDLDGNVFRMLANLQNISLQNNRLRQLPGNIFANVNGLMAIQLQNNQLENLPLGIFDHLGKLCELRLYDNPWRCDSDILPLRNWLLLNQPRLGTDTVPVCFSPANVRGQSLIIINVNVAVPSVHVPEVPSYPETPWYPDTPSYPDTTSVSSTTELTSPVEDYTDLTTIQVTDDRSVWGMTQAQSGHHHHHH

T2: cynomolgus (Macaca fascicularis) LRRC15 extracellular domain with C-terminal His tag (cynomolgus monkey (Macaca fascicularis), UniProt Q8TF66 22-538 (human entry))
T2 construct: Recombinant, made in HEK293; the entry holds the extracellular domain and the His tag; SPR analyte; also called TPP-9046
T2 chain: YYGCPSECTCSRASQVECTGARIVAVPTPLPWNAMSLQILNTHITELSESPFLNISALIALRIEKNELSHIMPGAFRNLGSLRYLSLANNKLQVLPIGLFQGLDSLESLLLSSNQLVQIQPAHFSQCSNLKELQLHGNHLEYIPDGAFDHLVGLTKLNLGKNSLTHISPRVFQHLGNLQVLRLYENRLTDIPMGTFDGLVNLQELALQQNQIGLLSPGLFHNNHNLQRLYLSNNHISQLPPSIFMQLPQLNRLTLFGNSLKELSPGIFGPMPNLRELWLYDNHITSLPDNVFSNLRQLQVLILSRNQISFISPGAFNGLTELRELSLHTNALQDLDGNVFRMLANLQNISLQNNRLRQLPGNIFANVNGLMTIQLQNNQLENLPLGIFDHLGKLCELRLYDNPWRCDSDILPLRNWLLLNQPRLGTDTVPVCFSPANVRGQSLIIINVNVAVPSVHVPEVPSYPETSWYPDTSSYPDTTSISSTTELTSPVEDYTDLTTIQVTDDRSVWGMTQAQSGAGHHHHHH


What was measured:
[1] = biological target: T1, human LRRC15 extracellular domain with …; test: calculated from SPR kd, 10°C
Procedure: (§1) To assess if anti-LRRC-15 antibodies show a difference in binding at different temperatures, binding assays were conducted using surface plasmon resonance (SPR). Binding assays were performed on a Biacore T200 instrument at temperatures of 10° C., 20° C., 25° C. and 37° C. with assay buffer HBS EP+, 1 mg/ml BSA (bovine serum albumine), 300 mM NaCl, 0.05% NaN₃. Antibodies were captured via anti-human Fc IgGs covalently amine coupled to a CM5 sensor chip and human LRRC15 was used as an analyte in a concentration series from 1.56-200 nM in multi cycle kinetics mode. Pre-experiments were conducted to have an equal capture level at each temperature. Obtained sensorgrams were fitted to a 1:1 Langmuir binding model to derive kinetic data.

[2] = biological target: T1, human LRRC15 extracellular domain with …; test: SPR (Example 6), overview table, repeats Table 9; head prints [M^-1]
Procedure: (§2) To assess the binding kinetics and affinity of anti-LRRC15 antibodies as well as their species cross-reactivity profile, binding assays were conducted using surface plasmon resonance (SPR). Binding assays were performed on a Biacore T200 instrument at 25° C. using assay buffer HBS EP+, 1 mg/ml BSA, 300 mM NaCl, 0.05% NaN3. Antibodies were captured via anti-human Fc IgGs covalently amine coupled to a CM5 sensor chip and human, mouse and cynomolgus LRRC15 were used as analytes in a concentration series from 1.56-200 nM in multi cycle kinetics mode. […] Obtained sensorgrams were fitted to a 1:1 Langmuir binding model to derive kinetic data.

[3] = biological target: T2, cynomolgus (Macaca fascicularis) LRRC15 …; test: as above
Procedure: as §2

[4] = biological target: T1, human LRRC15 extracellular domain with …; test: binding of the purified IgG, method not given
[5] = biological target: T1, human LRRC15 extracellular domain with …; test: SPR Biacore T200, antibody captured, LRRC15 analyte, 20°C
Procedure: as §1

[6] = biological target: T1, human LRRC15 extracellular domain with …; test: SPR at 10-37°C (Example 3)
Procedure: as §1

[7] = biological target: T1, human LRRC15 extracellular domain with …; test: SPR Biacore T200, antibody captured, LRRC15 analyte, 10°C
Procedure: as §1

[8] = biological target: T1, human LRRC15 extracellular domain with …; test: SPR Biacore T200, antibody captured, LRRC15 analyte, 25°C
Procedure: as §1

[9] = biological target: T1, human LRRC15 extracellular domain with …; test: SPR Biacore T200, 25°C, antibody captured, LRRC15 analyte
Procedure: as §2

[10] = biological target: T2, cynomolgus (Macaca fascicularis) LRRC15 …; test: as above
Procedure: as §2

[11] = biological target: T1, human LRRC15 extracellular domain with …; test: calculated from SPR kd, 25°C
Procedure: as §1

[12] = biological target: T1, human LRRC15 extracellular domain with …; test: calculated from SPR kd, 20°C
Procedure: as §1

[13] = biological target: T1, human LRRC15 extracellular domain with …; test: calculated from SPR kd, 37°C
Procedure: as §1

[14] = biological target: T1, human LRRC15 extracellular domain with …; test: SPR thermodynamics (van't Hoff/Eyring), 10-37°C
Procedure: as §1, with “Thermodynamics help to explain why an interaction is happening and what the driving forces for the interaction are. To” for “To”, “the thermodynamic parameters for anti-LRRC15” for “if anti-LRRC-15”, “antibodies” for “antibodies show a difference in binding at different temperatures,”, “BSA,” for “BSA (bovine serum albumine),”, “NaN3.” for “NaN₃.”, “data. Thermodynamic parameters were obtained using the integrated thermodynamics wizard in the Biacore T200 software. Van′t Hoff and Eyring plots were calculated and plotted and thermodynamic parameters were derived.” for “data.”

[15] = biological target: T1, human LRRC15 extracellular domain with …; test: SPR Biacore T200, antibody captured, LRRC15 analyte, 37°C
Procedure: as §1

| Binder | Complex Half Life [1] | Kd [2] | Kd [3] | Kd [4] | Kd [5] | Temperature dependent loss in binding affinity [6] | Kd [7] | Kd [8] | Kd [9] | Kd [10] | Complex Half Life [11] | Complex Half Life [12] | Complex Half Life [13] | -TΔS [14] | ΔG^0 [14] | ΔH^0 [14] | Kd [15] |
| --- | --- | --- | --- | --- | --- | --- | --- | --- | --- | --- | --- | --- | --- | --- | --- | --- | --- |
| TPP-1633 (antibody, human IgG1, kappa, V domains shown, also called 060E-M016-G14-hIgG1) VH: EVQLLESGGGLVQPGGSLRLSCAASGFTFSGYMMQWVRQAPGKGLEWVSGIYPSGGYTNYADSVKGRFTISRDNSKNTLYLQMNSLRAEDTATYYCAREKASDLSGSYSEALDYWGQGTLVTVSS VL: DIQMTQSPDSLSASVGDRVTITCRASQDVGSWLAWYQQKPGKAPKLLIFAASSLESGIPSRFSGSGSGTDFTLTISSLQPEDFATYYCQQANGFPLTFGGGTKVEIKR | 0.138 h | 150 nM | 190 nM | ~200 nM | 80 nM | > 9 fold | 18 nM | 160 nM | 150 nM | 190 nM | 0.00833 h | – | – | – | – | – | – |
| TPP-17405 (antibody, human IgG1, kappa, V domains shown, also called 438H-M345-F05-hIgG1Kappa) VH: EVQLVQSGAEVKKPGASVKVSCKASGYKFSSYWIEWVKQAPGQGLEWIGEILPGSDTTNYNEKFKDRATFTSDTSINTAYMELSRLRSDDTAVYYCARDRGNYRAWFQYWGQGTLVTVSS VL: DIQMTQSPSSLSASVGDRVTITCRASQRISSYLNWYQQKPGGAPKFLIYYASSLQSGVPSRFSGSGSGTDYTLTISSLQPEDFATYYCDQGLELPWTFGGGTKVEIKR | – | 0.86 nM | 0.78 nM | – | – | – | – | – | 0.86 nM | 0.78 nM | – | – | – | – | – | – | – |
| TPP-17418 (antibody, human IgG1, kappa, V domains shown, also called 438H-M308-H05_B-hIgG1Kappa) VH: EVQLVQSGAEVKKPGASVKVSCKASGYKFSSYWIEWVKQAPGQGLEWIGEILPGSDWTNYNEKFKDRATFTSDTSINTAYMELSRLRSDDTAVYYCARDRGNYRAWFQYWGQGTLVTVSS VL: DIQMTQSPSSLSASVGDRVTITCRASQSISSYLNWYQQKPGGAPKFLIYYASSLQSGVPSRFSGSGSGTDYTLTISSLQPEDFATYYCQQGFSLPWTFGGGTKVEIKR | – | 1.1 nM | 0.99 nM | – | – | – | – | – | 1.1 nM | 0.99 nM | – | – | – | – | – | – | – |
| TPP-17419 (antibody, human IgG1, kappa, V domains shown, also called 438H-M307-H07-hIgG1Kappa) VH: EVQLVQSGAEVKKPGASVKVSCKASGYKFSSYWIEWVKQAPGQGLEWIGEILPGSDWTNYNEKFKDRATFTSDTSINTAYMELSRLRSDDTAVYYCARDRGNYRAWFQYWGQGTLVTVSS VL: DIQMTQSPSSLSASVGDRVTITCRISQSISSYLNWYQQKPGGAPKFLIYYASSLQSGVPSRFSGSGSGTDYTLTISSLQPEDFATYYCQQGLRLPWTFGGGTKVEIKR | – | 3.4 nM | 2.5 nM | – | – | – | – | – | 3.4 nM | 2.5 nM | – | – | – | – | – | – | – |
| TPP-17073 (antibody, human IgG1, kappa, V domains shown, also called 438H-M113-N15-hIgG1) VH: EVQLLESGGGLVQPGGSLRLSCAASGFTFSGYMMSWVRQAPGKGLEWVSGIYPSAGYTLYADSVKGRFTISRDNSKNTLYLQMNSLRAEDTAVYYCAREKAADLFGSYSEALDYWGQGTLVTVSS VL: DIQMTQSPDSLSASVGDRVTITCRASQDVGSWLAWYQQKPGKAPKLLIFAASYLESGIPSRFSGSGSGTDFTLTISSLQPEDFATYYCQQANGFPLTFGGGTKVEIKR | – | 0.21 nM | 0.18 nM | – | – | – | – | – | 0.21 nM | 0.18 nM | – | – | – | – | – | – | – |
| TPP-14392 (antibody, human IgG1, kappa, V domains shown, also called 13612-rec05-hIgG1Kappa) VH: EVQLLESGGGLVQPGGSLRLSCAASGFTFSGYMMSWVRQAPGKGLEWVSGIYPSPGYTYYADSVKGRFTISRDNSKNTLYLQMNSLRAEDTAVYYCAREKASDLSGSYSEALDYWGQGTLVTVSS VL: DIQMTQSPDSLSASVGDRVTITCRASQDVGSWLAWYQQKPGKAPKLLIFAASYLESGIPSRFSGSGSGTDFTLTISSLQPEDFATYYCQQANGFPLTFGGGTKVEIKR | 3.21 h | 5.9 nM | 10 nM | – | 2.9 nM | 56.9 fold | – | 6.8 nM | 5.9 nM | 10 nM | 0.567 h | 1.48 h | 2.3 min | 15.3 kcal/mol | -11 kcal/mol | -26.3 kcal/mol | 91 nM |
| TPP-17074 (antibody, human IgG1, kappa, V domains shown, also called 438H-M161-K22-hIgG1) VH: EVQLLESGGGLVQPGGSLRLSCAASGFTFSGYMMSWVRQAPGKGLEWVSGIYPSGGYALYADSVKGRFTISRDNSKNTLYLQMNSLRAEDTAVYYCAREKAADLFGSYSEALDYWGQGTLVTVSS VL: DIQMTQSPDSLSASVGDRVTITCRASQDVGSWLAWYQQKPGKAPKLLIFAASYLESGIPSRFSGSGSGTDFTLTISSLQPEDFATYYCQQANGFPLTFGGGTKVEIKR | 10.7 h | 0.19 nM | – | – | 0.14 nM | 33.3 fold | 0.057 nM | 0.22 nM | 0.19 nM | – | 1.6 h | 3.16 h | – | 9.56 kcal/mol | -12.9 kcal/mol | -22.7 kcal/mol | 1.9 nM |
